The record followed here is IntAct's records for PubMed 17875641.

B1: tRNA-specific adenosine deaminase subunit tad3 (Schizosaccharomyces pombe (strain ATCC 38366 / 972)), Q9P7N4 (parent)
chain: MVKTNISKNSPKEATVPELDWPFKLIKSHLETRKLETENVWIACFEPKYASKVTQYVKQIRSKQKESLLHCNRLRRIQDENGSLELQIIICPEKSMTANEIGKDFEDLGIVSKMIFLYAVPAFPPLTDEQFHEWNSVWPVSYRKHVQRQDVFTVHELKRIESILEDLINAAGASHKHGEIGCAAAIYDPTTDTVLAVSVDERSKLKNPINHCVMNAINLVAKRELSRRQNRTDGSKDRYLCKDLTVVMTHEPCVMCSMGLLHSRIRRLIYCKKQPLTGGIESLYGIHWRAELNHRYLAYSGWNKPVPSIKENIHV
partner: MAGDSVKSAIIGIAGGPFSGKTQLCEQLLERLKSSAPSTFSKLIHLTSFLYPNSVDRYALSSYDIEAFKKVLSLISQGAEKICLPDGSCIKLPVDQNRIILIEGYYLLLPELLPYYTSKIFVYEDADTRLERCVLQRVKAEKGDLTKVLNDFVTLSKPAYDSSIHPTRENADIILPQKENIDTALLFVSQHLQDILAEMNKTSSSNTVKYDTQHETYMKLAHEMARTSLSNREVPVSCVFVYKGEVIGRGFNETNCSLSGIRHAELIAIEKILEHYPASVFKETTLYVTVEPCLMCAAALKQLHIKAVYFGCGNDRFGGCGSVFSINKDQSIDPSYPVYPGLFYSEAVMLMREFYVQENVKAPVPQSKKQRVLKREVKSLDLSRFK

This test covers variants of B1. The note with it: with tad2_schpo tad2, O94642.
As to S257N, the “effect of a mutation on the interaction” value was “decreasing interaction”.
